The values below come from the supplement of paper PMC10567573.

± gives the standard deviation.

The data set in a line: protein stability index of a GFP-peptide fusion (GPS, HEK-293T) (PSI 1-6); higher = more stable.
Where [1] appears, read: treatment: DMSO, c terminus: a fixed tail appended.
Setting [2] is: treatment: MLN4924 1 uM, 8 h, c terminus: a fixed tail appended.
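Further: 24-mer peptide tiles fused after GFP, lentivirally expressed, FACS-sorted into six equal bins by GFP/DsRed ratio, decoded by Illumina sequencing, PSI is the read-weighted mean bin number.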

Take GAAVGTGSSYPTTTISYLPHAPPF [JUNB]: the protein stability index came out at 3.1 ± 0.29 under setting [1] and 3.35 ± 0.36 under setting [2].

As for RAARDYKIQNHGHRVLQRLEQRRQ [FCHSD1], the protein stability index under setting [1] came to 3.82 ± 0.079 and the protein stability index under setting [2] amounted to 4.07 ± 0.26.

In turn, NFQNIPKETELPFPKQILDQNNVI [MIA2] came in with a protein stability index under setting [1] of 3.54 ± 0.34 and a protein stability index under setting [2] of 3.45 ± 0.24.

VTYSLLKRLKERSLDTLLEAVESR [SMAD6]: the protein stability index came out at 2.26 ± 0.17 under setting [1] and 2.33 ± 0.29 under setting [2].

Turning to GKWMKKFPESETKECPFRVNKVCG [SERPINB5], the protein stability index by setting is: under setting [1], 3.13 ± 0.32; under setting [2], 3.47 ± 0.38.

As to CFKSVAKTPYDTSRRQEKSAGDAD [ELOA2], the protein stability index came to 4.96 ± 0.3 under setting [1] and 5 ± 0.46 under setting [2].

ELGSPLRRSISSSRSENVLSRLSL [PSD2] returned a protein stability index under setting [1] of 3.07 ± 0.42 and a protein stability index under setting [2] of 3.2 ± 0.13.

Consider TSLEITILTSQPGKEVVKQLEEGL [M1AP], for which the protein stability index under setting [1] was found to be 2.74 ± 0.22 and the protein stability index under setting [2] was found to be 2.68 ± 0.2.

For TAFCTHVFPETAFIAVTSYQNHKI [TBX5], the protein stability index reads like this: under setting [1], 2.31 ± 0.41; under setting [2], 2.27 ± 0.42.

As to TLSASSSAGGSRTPAMSSSSSSRV [TFE3], the protein stability index by setting is: under setting [1], 4.57 ± 0.46; under setting [2], 4.96 ± 0.25.

On to VWYVKKFGRYLEHLEVKFMNPYNA [FBXO39], for which the protein stability index reads like this: under setting [1], 2.66 ± 0.53; under setting [2], 2.02 ± 0.45.

As to EEFIEEEDQEEEESTEGKEEGHQ [TRIM63], the protein stability index stood at 5.56 ± 0.41 (treatment: DMSO, c terminus: native) and 5.71 ± 0.27 (treatment: MLN4924 1 uM, 8 h, c terminus: native).

Regarding SLQLVFGIELMEVDPIGHVYIFAT [MAGEA6], the protein stability index amounted to 2.73 ± 0.21 under setting [1] and 3 ± 0.28 under setting [2].

As for PSSLSSSEGSSSSSSSSSSSSSSA [NFE2L1], the protein stability index runs as follows: under setting [1], 5.51 ± 0.22; under setting [2], 5.47 ± 0.12.

Take GPAAAAAPSLEAPKPSGLEPGPAA [KCTD13]: the protein stability index runs as follows: under setting [1], 5.4 ± 0.11; under setting [2], 5.39 ± 0.29.

Consider EQELLRRQQRLNQLEKPPEKEEDH [FAM107A], for which the protein stability index reads like this: under setting [1], 5.62 ± 0.16; under setting [2], 5.54 ± 0.12.

Turning to ALNSMLRRRFREKKKAIQEEEERD [YJU2B], the protein stability index under setting [1] stood at 3.57 ± 0.12 and the protein stability index under setting [2] was 3.59 ± 0.1.

LGDKGLSDTPYDSSASYEKENEMM [IKZF1]: the protein stability index was determined as 5.37 ± 0.14 under setting [1] and 5.26 ± 0.18 under setting [2].

On to VFLVSCALPDSVLRRFVVRTMCAV [AUP1], for which the protein stability index reads like this: under setting [1], 2.71 ± 0.49; under setting [2], 2.67 ± 0.068.

In the case of SAQNGLASSLPAEVHSLTLSPPEQ [PLAGL1], the protein stability index under setting [1] came out at 5 ± 0.15 and the protein stability index under setting [2] was 5.03 ± 0.22.

Consider NNHESLDEELHLLIISCRKLFYFK [FBXO39], for which the protein stability index by setting is: under setting [1], 2.25 ± 0.32; under setting [2], 2.12 ± 0.16.

For GPLAQPLTLQVLVAGNPQDTRLRY [ADAMTS4], the protein stability index came to 2.49 ± 0.22 under setting [1] and 2.86 ± 0.1 under setting [2].

YCHPDSETDEDEEEGDEQQRLLNT [GMCL1] returned a protein stability index under setting [1] of 5.33 ± 0.37 and a protein stability index under setting [2] of 5.2 ± 0.36.

HDFFLQGFTPDRLSSSCCHTVPDF [PLK2]: the protein stability index by setting is: under setting [1], 2.71 ± 0.23; under setting [2], 2.73 ± 0.24.

As to SDMDRNKTILGNAHDNSEELERAR [ANKRD44], the protein stability index is, setting by setting: under setting [1], 5.58 ± 0.16; under setting [2], 5.57 ± 0.3.

For DCGTIQENWVCLSCYQVYCGRYIN [HDAC6], the protein stability index is 2.85 ± 1.1 under setting [1] and 2.39 ± 0.63 under setting [2].

As for MMNQSMMGMNMNIGMSAAGMGLTG [CLINT1], the protein stability index is, setting by setting: under setting [1], 2.46 ± 0.39; under setting [2], 2.53 ± 0.3.

Turning to ERRPVAQSTDGARGKRGYSRGLHA [SPSB2], the protein stability index by setting is: under setting [1], 4.52 ± 0.11; under setting [2], 4.58 ± 0.13.

Take AALIYFAISITAIAKYSDGASKAA [CMTM3]: the protein stability index reads like this: under setting [1], 3.49 ± 0.37; under setting [2], 3.43 ± 0.62.

Regarding MSWRGRSTYYWPRPRRYVQPPEMI [GAGE1], the protein stability index came out at 2.64 ± 0.43 under setting [1] and 2.55 ± 0.24 under setting [2].

As to QALQHVQASCDEAHKMKFSDLFSL [INTS3], the protein stability index was 2.86 ± 0.39 under setting [1] and 2.95 ± 0.33 under setting [2].

As to SVCFIFTITIGMFPAVTVEVKSSI [SLC29A1], the protein stability index under setting [1] was 3.17 ± 0.55 and the protein stability index under setting [2] came to 3.46 ± 0.34.

On to LGQHMVEQLLARGYAVNVFDIQQG [NSDHL], for which the protein stability index under setting [1] was 2.72 ± 0.9 and the protein stability index under setting [2] worked out at 2.22 ± 0.57.

For the sequence VLMDTQGAFDSQSTVKDCATIFAL [ATL3], the protein stability index is, setting by setting: under setting [1], 2.48 ± 0.35; under setting [2], 2.55 ± 0.21.

With HDFIEHILRKLPQQREKLSLIRKH [CCND2], the protein stability index came out at 2.3 ± 0.1 under setting [1] and 2.45 ± 0.25 under setting [2].

With IPQQQGMRPPMPPHGQYGGHHQGM [ZNF207], the protein stability index by setting is: under setting [1], 3.71 ± 0.24; under setting [2], 3.88 ± 0.11.

As for PSFHPHAGGGSQENLDNDTETDSL [DVL3], the protein stability index under setting [1] amounted to 5.58 ± 0.31 and the protein stability index under setting [2] was 5.5 ± 0.29.

NFSLATNTKYSVYIYVYFHTKLTS [R3HDM1]: the protein stability index is, setting by setting: under setting [1], 2.6 ± 0.41; under setting [2], 2.36 ± 0.9.

For the sequence LDVECHEKEKHVNQLQTKVAVLEQ [SASS6], the protein stability index reads like this: under setting [1], 5.03 ± 0.11; under setting [2], 5.07 ± 0.21.

In the case of ITYPPGVKEISDKISKEEMVRRLK [PDS5B], the protein stability index turned out to be 3.49 ± 0.36 under setting [1] and 3.73 ± 0.44 under setting [2].

The sequence TGVQEVLSALLRATPGEYSVNICG [SPAG8] had a protein stability index under setting [1] of 2.5 ± 0.59 and a protein stability index under setting [2] of 2.23 ± 0.16.

On to YVPNMLGIIPYAGIDLAVYETLKN [SLC25A25], for which the protein stability index runs as follows: under setting [1], 2.87 ± 0.19; under setting [2], 2.61 ± 0.5.

Turning to LFDTKHDVYSFAIVIWGVLTQKKP [RIPK4], the protein stability index runs as follows: under setting [1], 2.49 ± 0.56; under setting [2], 2.72 ± 0.17.

With FQEYDTDCEVFRQRFRQFQYREAA [ZNF449], the protein stability index is, setting by setting: under setting [1], 2.77 ± 0.27; under setting [2], 3.18 ± 0.23.

In the case of PRHPIRALVGDEVELPCRISPGKN [MOG], the protein stability index is, setting by setting: under setting [1], 4.62 ± 0.17; under setting [2], 4.72 ± 0.21.

As for NDIRIFLEKVLEENAQKKRFNQVL [VPS39], the protein stability index was 2.1 ± 0.24 under setting [1] and 2.27 ± 0.29 under setting [2].

Turning to TQGCHPAWEPRSESQASRKEEGLP [ZNF8], the protein stability index is 4.89 ± 0.25 under setting [1] and 4.96 ± 0.18 under setting [2].

For the sequence PHIEEQQKKIESYLHNHFIGEGMT [TENT5D], the protein stability index by setting is: under setting [1], 3.35 ± 0.33; under setting [2], 3.59 ± 0.27.

On to AVETEGSGSRHPPWARGCGMFTFL [SLC2A12], for which the protein stability index is 2.11 ± 0.16 under setting [1] and 2.13 ± 0.28 under setting [2].

Regarding VARILIDLCSDVNVCSLLAQTPLH [RIPK4], the protein stability index is, setting by setting: under setting [1], 2.65 ± 0.26; under setting [2], 2.57 ± 0.4.

Turning to KCGNCQTKLHDIDGVPHLILIASR [KMT5A], the protein stability index under setting [1] came to 2.35 ± 0.46 and the protein stability index under setting [2] stood at 2.51 ± 0.41.

Regarding SAMAENILAAACESETRKAAKRMR [NOL4L], the protein stability index is, setting by setting: under setting [1], 4.32 ± 0.2; under setting [2], 4.69 ± 0.46.

Take RRDGKWQNVHFHRSGSPTVPIKPP [CAMK2D]: the protein stability index is, setting by setting: under setting [1], 3.32 ± 0.27; under setting [2], 3.54 ± 0.4.

Turning to IHSREKRGDSVKVENPSTASHSLS [ZNF649], the protein stability index was 4.97 ± 0.26 under setting [1] and 5.22 ± 0.15 under setting [2].

Consider FMQTGYNKLCDWWSLGVIMYEMLI [STK38L], for which the protein stability index came to 2.77 ± 0.82 under setting [1] and 2.47 ± 0.64 under setting [2].

Take LEEAEGAVGYQPEYSKFCRMSYQD [NFE2L1]: the protein stability index reads like this: under setting [1], 3.56 ± 0.4; under setting [2], 3.05 ± 0.31.

For the sequence APEAKDGSSFSGRVFRVTFLMLAV [APMAP], the protein stability index is, setting by setting: under setting [1], 3.47 ± 0.77; under setting [2], 2.77 ± 0.75.

As for VPQIFKYGETCFPKGRFERKRNPS [ZNF24], the protein stability index reads like this: under setting [1], 3.8 ± 0.76; under setting [2], 3.93 ± 1.1.

For the sequence TQEKKAESKEPIEEEPTGAGLNKD [SDE2], the protein stability index stood at 5.65 ± 0.12 under setting [1] and 5.41 ± 0.28 under setting [2].

As for PSTTERISTSGQAGTSSHGCWAWP [PXN], the protein stability index amounted to 3.04 ± 0.21 under setting [1] and 3.17 ± 0.23 under setting [2].

Regarding TSPAKDSLSFEDFLDLLSVFSDTA [CIB1], the protein stability index by setting is: under setting [1], 2.28 ± 0.1; under setting [2], 2.45 ± 0.27.

For the sequence PQQAPQDDGSQDPEVLDRESRDRP [PWWP2B], the protein stability index is, setting by setting: under setting [1], 5.63 ± 0.29; under setting [2], 5.47 ± 0.14.

Consider DPQNGFDVNNLDPDLRSLFSRAGI [WAS], for which the protein stability index was 3.93 ± 0.3 under setting [1] and 3.81 ± 0.32 under setting [2].

For the sequence LDRERAAANEQLTRAILRERICSE [CHCHD3], the protein stability index came out at 4.14 ± 0.23 under setting [1] and 4.1 ± 0.42 under setting [2].

As for EEDIQGPTKADTEKWAEGGGHSRE [CHGB], the protein stability index runs as follows: under setting [1], 5.52 ± 0.17; under setting [2], 5.38 ± 0.28.

As to TKKGFYSLSVRHRQVKHYRIFRLP [SLA], the protein stability index under setting [1] came out at 2.54 ± 0.45 and the protein stability index under setting [2] was found to be 2.54 ± 0.31.

On to EILSSRASYSGKAADVWSLGVALF [TRIB3], for which the protein stability index by setting is: under setting [1], 2.52 ± 0.52; under setting [2], 2.42 ± 0.39.

With LLEEEEKQWGPLEREPVRGQCLDS [RTN2], the protein stability index is, setting by setting: under setting [1], 5.1 ± 0.3; under setting [2], 5.26 ± 0.077.

Turning to SCEACKAFFKRTIQGNIEYSCPAT [ESRRG], the protein stability index under setting [1] amounted to 2.46 ± 0.25 and the protein stability index under setting [2] came to 2.64 ± 0.37.

Consider RSRIEEQSQLICILKRRSDEALER [CCDC89], for which the protein stability index runs as follows: under setting [1], 3.86 ± 0.12; under setting [2], 3.76 ± 0.23.

Turning to IFQEKHVNLLHIESRKSKRRNSEF [TPH1], the protein stability index was 3.06 ± 0.25 under setting [1] and 3.27 ± 0.28 under setting [2].

WRKRFTEQPITDFCSVIRINSTAP [ZNF277]: the protein stability index runs as follows: under setting [1], 2.48 ± 0.55; under setting [2], 2.23 ± 0.087.
